T1: HCoV-229E spike antigens (bead panel) (HCoV-229E, UniProt P15423 16-1115)
T1 sequence: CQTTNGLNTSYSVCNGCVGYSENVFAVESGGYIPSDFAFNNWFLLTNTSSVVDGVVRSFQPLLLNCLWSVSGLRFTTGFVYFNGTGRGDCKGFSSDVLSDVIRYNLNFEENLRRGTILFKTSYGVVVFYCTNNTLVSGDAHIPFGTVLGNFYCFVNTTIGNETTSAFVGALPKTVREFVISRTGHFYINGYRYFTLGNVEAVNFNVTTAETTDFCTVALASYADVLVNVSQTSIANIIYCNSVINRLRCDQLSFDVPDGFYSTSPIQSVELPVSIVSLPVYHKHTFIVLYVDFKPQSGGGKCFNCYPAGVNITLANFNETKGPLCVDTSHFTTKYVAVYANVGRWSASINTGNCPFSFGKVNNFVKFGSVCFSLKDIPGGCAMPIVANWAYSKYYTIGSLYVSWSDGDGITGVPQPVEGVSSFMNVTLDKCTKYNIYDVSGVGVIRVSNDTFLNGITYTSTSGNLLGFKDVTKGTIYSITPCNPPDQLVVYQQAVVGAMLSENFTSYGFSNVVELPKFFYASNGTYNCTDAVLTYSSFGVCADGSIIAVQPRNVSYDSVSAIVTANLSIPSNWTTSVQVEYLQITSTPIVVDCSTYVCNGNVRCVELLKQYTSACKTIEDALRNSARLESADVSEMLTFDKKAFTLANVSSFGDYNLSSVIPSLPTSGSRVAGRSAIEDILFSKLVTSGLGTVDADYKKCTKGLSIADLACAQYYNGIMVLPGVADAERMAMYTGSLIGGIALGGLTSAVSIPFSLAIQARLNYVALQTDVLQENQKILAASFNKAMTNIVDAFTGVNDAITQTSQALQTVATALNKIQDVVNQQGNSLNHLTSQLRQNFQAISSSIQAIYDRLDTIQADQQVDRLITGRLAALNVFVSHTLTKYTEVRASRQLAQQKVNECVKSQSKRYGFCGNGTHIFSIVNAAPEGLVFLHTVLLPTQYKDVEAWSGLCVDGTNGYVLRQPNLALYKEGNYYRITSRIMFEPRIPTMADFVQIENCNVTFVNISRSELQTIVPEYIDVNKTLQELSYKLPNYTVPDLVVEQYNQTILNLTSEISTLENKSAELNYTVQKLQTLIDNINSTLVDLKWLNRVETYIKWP

T2: MERS-CoV spike antigens (bead panel) (MERS-CoV, UniProt K9N5Q8 18-1296)
T2 sequence: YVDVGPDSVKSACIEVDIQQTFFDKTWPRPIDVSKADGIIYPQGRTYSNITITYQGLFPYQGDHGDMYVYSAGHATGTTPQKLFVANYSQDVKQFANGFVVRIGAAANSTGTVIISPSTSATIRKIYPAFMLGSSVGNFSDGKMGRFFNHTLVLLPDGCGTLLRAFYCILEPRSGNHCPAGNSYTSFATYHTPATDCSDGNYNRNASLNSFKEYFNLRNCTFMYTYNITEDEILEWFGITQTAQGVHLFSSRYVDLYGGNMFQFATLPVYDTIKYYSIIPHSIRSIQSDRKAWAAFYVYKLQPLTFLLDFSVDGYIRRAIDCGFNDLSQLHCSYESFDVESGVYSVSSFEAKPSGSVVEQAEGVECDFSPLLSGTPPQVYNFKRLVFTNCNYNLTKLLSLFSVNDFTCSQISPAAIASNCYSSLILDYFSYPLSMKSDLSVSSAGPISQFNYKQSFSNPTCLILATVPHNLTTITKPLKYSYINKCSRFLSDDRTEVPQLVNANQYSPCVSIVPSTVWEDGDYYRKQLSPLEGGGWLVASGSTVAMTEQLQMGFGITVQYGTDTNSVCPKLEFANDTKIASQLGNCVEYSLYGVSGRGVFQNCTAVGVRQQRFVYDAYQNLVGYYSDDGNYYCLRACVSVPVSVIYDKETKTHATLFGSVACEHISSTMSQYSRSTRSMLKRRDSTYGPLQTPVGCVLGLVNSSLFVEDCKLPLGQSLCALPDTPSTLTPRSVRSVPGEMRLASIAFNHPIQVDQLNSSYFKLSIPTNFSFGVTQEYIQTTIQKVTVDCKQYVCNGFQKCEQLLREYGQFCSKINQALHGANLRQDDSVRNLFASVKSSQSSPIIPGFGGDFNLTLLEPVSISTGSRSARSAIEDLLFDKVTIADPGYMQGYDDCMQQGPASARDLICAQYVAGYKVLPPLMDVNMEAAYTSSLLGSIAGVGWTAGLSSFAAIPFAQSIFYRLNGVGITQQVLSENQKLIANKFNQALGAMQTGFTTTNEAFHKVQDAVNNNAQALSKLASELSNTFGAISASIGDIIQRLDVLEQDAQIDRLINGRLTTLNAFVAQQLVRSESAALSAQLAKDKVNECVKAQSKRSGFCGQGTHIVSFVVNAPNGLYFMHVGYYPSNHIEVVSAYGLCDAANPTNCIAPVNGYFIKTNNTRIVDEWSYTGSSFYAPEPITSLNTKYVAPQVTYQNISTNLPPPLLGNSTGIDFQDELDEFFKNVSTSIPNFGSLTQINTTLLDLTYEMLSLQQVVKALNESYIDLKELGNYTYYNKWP

T3: HCoV-HKU1 spike antigens (bead panel) (HCoV-HKU1, UniProt Q5MQD0 13-1300)
T3 sequence: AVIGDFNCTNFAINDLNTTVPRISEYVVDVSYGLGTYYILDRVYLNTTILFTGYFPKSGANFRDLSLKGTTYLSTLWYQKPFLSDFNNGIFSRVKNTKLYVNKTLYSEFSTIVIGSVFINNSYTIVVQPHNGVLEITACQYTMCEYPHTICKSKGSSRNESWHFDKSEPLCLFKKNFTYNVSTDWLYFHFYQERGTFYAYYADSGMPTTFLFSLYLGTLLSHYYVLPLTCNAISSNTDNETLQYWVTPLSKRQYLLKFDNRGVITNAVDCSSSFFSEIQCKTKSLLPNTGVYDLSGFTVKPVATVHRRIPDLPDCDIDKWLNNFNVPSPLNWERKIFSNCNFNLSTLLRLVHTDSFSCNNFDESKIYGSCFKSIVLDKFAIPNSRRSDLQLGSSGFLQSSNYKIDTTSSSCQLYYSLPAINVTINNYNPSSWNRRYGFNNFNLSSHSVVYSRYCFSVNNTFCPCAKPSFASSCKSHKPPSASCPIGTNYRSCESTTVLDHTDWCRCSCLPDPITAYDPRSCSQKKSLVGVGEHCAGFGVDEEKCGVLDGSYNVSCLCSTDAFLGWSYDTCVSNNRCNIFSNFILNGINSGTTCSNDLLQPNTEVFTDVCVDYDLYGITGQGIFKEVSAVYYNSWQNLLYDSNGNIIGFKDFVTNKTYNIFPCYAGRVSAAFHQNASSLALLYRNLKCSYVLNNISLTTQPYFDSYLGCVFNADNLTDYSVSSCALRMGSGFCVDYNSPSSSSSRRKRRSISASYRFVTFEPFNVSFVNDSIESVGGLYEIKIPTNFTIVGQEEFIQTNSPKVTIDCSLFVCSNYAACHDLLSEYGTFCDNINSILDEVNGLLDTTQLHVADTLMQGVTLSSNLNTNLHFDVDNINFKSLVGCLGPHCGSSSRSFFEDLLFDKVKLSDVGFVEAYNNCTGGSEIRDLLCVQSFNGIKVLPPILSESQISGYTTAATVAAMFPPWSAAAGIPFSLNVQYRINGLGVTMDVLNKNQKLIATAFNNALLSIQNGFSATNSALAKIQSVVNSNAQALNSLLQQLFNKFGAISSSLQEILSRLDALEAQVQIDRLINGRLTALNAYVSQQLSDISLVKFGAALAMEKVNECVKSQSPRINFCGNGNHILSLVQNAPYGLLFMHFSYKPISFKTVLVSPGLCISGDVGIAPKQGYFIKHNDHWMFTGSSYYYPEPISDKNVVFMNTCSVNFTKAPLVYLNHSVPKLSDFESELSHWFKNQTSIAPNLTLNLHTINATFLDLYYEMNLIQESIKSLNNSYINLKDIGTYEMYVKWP

T4: HCoV-OC43 spike antigens (bead panel) (HCoV-OC43, UniProt P36334 14-1297)
T4 sequence: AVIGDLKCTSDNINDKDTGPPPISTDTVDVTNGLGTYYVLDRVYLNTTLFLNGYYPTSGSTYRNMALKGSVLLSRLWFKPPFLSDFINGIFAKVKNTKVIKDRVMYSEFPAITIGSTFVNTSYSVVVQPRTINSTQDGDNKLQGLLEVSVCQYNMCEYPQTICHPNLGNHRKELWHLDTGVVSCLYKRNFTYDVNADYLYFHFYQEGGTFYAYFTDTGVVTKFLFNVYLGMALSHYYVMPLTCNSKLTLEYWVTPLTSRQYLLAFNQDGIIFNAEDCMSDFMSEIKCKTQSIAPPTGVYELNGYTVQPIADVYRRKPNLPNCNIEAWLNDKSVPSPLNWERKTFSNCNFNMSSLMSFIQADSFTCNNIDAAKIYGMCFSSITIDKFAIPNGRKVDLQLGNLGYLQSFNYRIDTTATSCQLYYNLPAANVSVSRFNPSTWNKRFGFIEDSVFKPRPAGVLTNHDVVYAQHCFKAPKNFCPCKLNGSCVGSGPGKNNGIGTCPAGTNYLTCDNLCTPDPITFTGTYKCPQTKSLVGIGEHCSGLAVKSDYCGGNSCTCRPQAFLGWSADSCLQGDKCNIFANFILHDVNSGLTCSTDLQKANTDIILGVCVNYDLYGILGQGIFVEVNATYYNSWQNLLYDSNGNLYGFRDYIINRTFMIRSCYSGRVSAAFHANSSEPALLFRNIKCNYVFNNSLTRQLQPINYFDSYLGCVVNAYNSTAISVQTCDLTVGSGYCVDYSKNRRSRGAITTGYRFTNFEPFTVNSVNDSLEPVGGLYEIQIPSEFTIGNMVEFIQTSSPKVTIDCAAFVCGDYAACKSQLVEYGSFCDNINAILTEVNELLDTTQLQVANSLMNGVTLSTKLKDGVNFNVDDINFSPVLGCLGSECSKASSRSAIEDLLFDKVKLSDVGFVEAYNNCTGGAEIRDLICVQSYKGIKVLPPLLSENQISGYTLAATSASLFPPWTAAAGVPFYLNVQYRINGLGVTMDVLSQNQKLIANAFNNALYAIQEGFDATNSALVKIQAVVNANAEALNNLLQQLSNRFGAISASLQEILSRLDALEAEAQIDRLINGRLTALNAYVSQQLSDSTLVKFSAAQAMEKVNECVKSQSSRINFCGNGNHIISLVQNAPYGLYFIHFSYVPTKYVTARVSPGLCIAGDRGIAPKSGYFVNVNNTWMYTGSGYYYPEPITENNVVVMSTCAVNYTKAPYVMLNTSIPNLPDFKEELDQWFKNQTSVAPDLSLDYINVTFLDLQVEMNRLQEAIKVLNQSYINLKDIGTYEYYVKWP


Tests used:
[1] = biological target: T1, HCoV-229E spike antigens (bead panel); assay: multiplex bead assay
[2] = biological target: T2, MERS-CoV spike antigens (bead panel); assay: multiplex bead assay
[3] = biological target: T3, HCoV-HKU1 spike antigens (bead panel); assay: multiplex bead assay
[4] = biological target: SARS-CoV-1 spike antigens (bead panel) (SARS-CoV-1, UniProt P59594 14-1195); assay: multiplex bead assay
[5] = biological target: T4, HCoV-OC43 spike antigens (bead panel); assay: multiplex bead assay
[6] = biological target: T5, SARS-CoV-2 S on pseudovirions (Wuhan Hu-1 / IL1/2020, last 18 amino acids removed) (SARS-CoV-2, UniProt P0DTC2 14-1273); assay: cell-based or functional assay
[7] = biological target: T5, SARS-CoV-2 S on pseudovirions (Wuhan …); assay: cell-based or functional assay; remark: listed apart in the source

| Binder | binding result [1] | binding result [2] | binding result [3] | binding result [4] | binding result [5] | Mean IC50, pSV neutralization [6] [µg/ml] | Mean IC80, pSV neutralization [6] [µg/ml] | IC50, pseudotyped neutralization assay [7] [ng/mL] |
| --- | --- | --- | --- | --- | --- | --- | --- | --- |
| COV_3103 (antibody, V domains shown, human IgG1) VH: EVQLVESGGGLVQPGRSLRLSCVASGFIVENFAMHWVRQAPGKGLEWVSGITWNSASTGYVESVKGRFSISRDNGENSMFLEMNSLRPDDTALYYCVKATGSYWGFPMDVWGQGTTVTVSS VL: EIVLTQSPGTLSLSPGEGGTLSCRASQSVRSNYLAWYQRKPGQAPRLLIYATSNRATGIPDRFSGSGSGTDFTLTISRLEPEDFAVYFCQHYGDSPYTFGQGTKLEIKR | no binding | no binding | no binding | no binding |  |  |  |  |
| COV_2165 (antibody, V domains shown, human IgG1) VH: EVQLVESGGGLVQPGGSLRLSCAASGFTFSSYSMNWVRQAPGKGLEWVSYISSSSSTIYYADYVKGRFTISRDNAKNSLYLQMNSLRAEDRAVYYCARVARRDVAPATIAAYFLDYWGQGTLVTVSS VL: EIVLTQSPATLSLSPGERATLSCRASQSLSSYLAWYQQKPGQAPRLLIYDASTRATGIPARFSGSGSGTDFTLTISSLEPEDFAVYYCQQRSTWPRGFTFGPGTKVDIK |  |  |  | no binding | no binding | 0.02 | 0.04 | 10 |
| COV_2173 (antibody, V domains shown, human IgG1) VH: QVQLQESGPGLVKPSETLSLTCSVSGDSISSSDYSWGWIRQPPGKGLEWIGTIYYIKNTYYNPSLRSRVTLSVDTSKNLFSLKLSSVTAADTAVYYCARERPPFDVVVVPAARPYNWFDPWGLGTLVIVSS VL: QSVLMQPPSVSGAPGQRVTISCTGSSSNIGAGYDVHWYQQLPGTAPKLLIYGNNNRPSGVPDRFSGSKSGTSASLAITGLQADDEADYYCQSYDSSLSGSKVFGGGTKLTVL |  |  |  |  | no binding |  | 0.01 | 4 |

Source: patent US20240101645A1 (HENRY M JACKSON FOUNDATION FOR THE ADVANCEMENT OF MILITARY …, published 2024)
